Reference: the supplement of paper PMC7125110
± gives the standard error. Fewer inactive variants are shown than the library holds.

B1: glmS ribozyme (parent)
chain: AUAAAAGCGCCAGAACUACAGAAAUGUAGUUGACGAGGAGGAGGUUUAUCGAAUUUUCGGCGGAUGCCUCCAAA

Key:
Details in all cases: with glucosamine-6-phosphate
glucosamine-6-phosphate [1] = variants of: B1; experiment: self-cleavage kobs at 40 uM GlcN6P; higher = faster cleavage; RNA array
How it was run: (§1)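 Barcoded ribozyme variants were transcribed in situ on sequenced MiSeq chips by E. coli RNA polymerase. At 37 °C, a hybridised Cy3 probe tracked them while glucosamine-6-phosphate (40 μM to 10 mM) in HEPES/KCl/Mg(OAc)2 buffer flowed in and tiles were imaged over ~14 h. Per-tile medians of signals normalised to baseline and to non-cleaving reference variants were fit to one- or two-exponential decays, giving kobs. kcat and KM came from weighted Michaelis–Menten fits across concentrations.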

glucosamine-6-phosphate [2] = variants of: B1; experiment: self-cleavage kobs at 160 uM GlcN6P; higher = faster cleavage; RNA array
How it was run: as §1

glucosamine-6-phosphate [3] = variants of: B1; experiment: self-cleavage kobs at 640 uM GlcN6P; higher = faster cleavage; RNA array
How it was run: as §1

glucosamine-6-phosphate [4] = variants of: B1; experiment: self-cleavage kobs at 2500 uM GlcN6P; higher = faster cleavage; RNA array
How it was run: as §1

glucosamine-6-phosphate [5] = variants of: B1; experiment: self-cleavage kobs at 10000 uM GlcN6P; higher = faster cleavage; RNA array
How it was run: as §1

| Variant | self-cleavage kobs at 40 uM GlcN6P (glucosamine-6-phosphate [1]) | self-cleavage kobs at 160 uM GlcN6P (glucosamine-6-phosphate [2]) | self-cleavage kobs at 640 uM GlcN6P (glucosamine-6-phosphate [3]) | self-cleavage kobs at 2500 uM GlcN6P (glucosamine-6-phosphate [4]) | self-cleavage kobs at 10000 uM GlcN6P (glucosamine-6-phosphate [5]) |
| --- | --- | --- | --- | --- | --- |
| AUAAAAGCGCCAGAACUACAGAAAUGUAAUUGACGAGGAGGAGGUUUGUCGAAUUUUCGGCGGAUGCCUCCAAA [G29A A48G] | < 1e-05 s⁻¹ | < 1e-05 s⁻¹ | < 1e-05 s⁻¹ | – | – |
| AUAAAAGCGCCAGAACUACAGAAAUGUAAUUGACGAGGAGGAGGUUUAUCGAAUUUUCGGCGGAUGCCUCUAAA [G29A C71U] | 0.000141 ± 2e-05 s⁻¹ | 0.000261 ± 8.2e-05 s⁻¹ | 0.000549 ± 7.9e-05 s⁻¹ | 0.00526 ± 0.0012 s⁻¹ | 0.00436 ± 0.00077 s⁻¹ |
| AUAAAAGCGCCAGAACUACAGAAAUGUAAUUGACGAGGAGGAGGUUUAUCGAAUUUUCGGCGGAUGCCUUCAAA [G29A C70U] | 0.000121 ± 1.3e-05 s⁻¹ | 0.000201 ± 2.9e-05 s⁻¹ | 0.000483 ± 6e-05 s⁻¹ | – | 0.0021 ± 0.0006 s⁻¹ |
| AUAAAAGCGCCAGAACUACAGAAAUGUACUUGCCGAGGAGGAGGUUUAUCGAAUUUUCGGCGGAUGCCACCAAA [G29C A33C U69A] | < 1e-05 s⁻¹ | – | – | – | – |
| AUAAAAGCGCCAGAACUACAGAAAUGUAAUUGACGUGGGGUAGGUUUAUCGAAUUUUCGGCGGAUGGCUCCAAA [G29A A36U A39G G41U C67G] | < 1e-05 s⁻¹ | – | – | < 1e-05 s⁻¹ | – |
| AUAAAAGCGCCAGAACUACAGAAAUGUAAUUGACGAUGAUGAGGUUUAUCGAAUUUUCGGCGGAGGCUUCCAAA [G29A G37U G40U U65G C68U] | < 1e-05 s⁻¹ | – | – | – | – |
| AUAAAAGCGCCAGAACUACAGAAAUGUAAUUGACGAGGAGGAGGUUUAUCGAAUCUUCGGCGGAUGCCUCCAAA [G29A U55C] | 0.000113 ± 2.5e-05 s⁻¹ | 9.66e-05 ± 2.7e-05 s⁻¹ | 0.00146 ± 0.00032 s⁻¹ | 0.00194 ± 0.00056 s⁻¹ | 0.00384 ± 0.00092 s⁻¹ |
| AUAAAAGCGCCAGAACUACAGAAAUGUACUUGACGAGGAGGAGGAUUAUCGAAUUUUCGGCGGAUGCGUCCAAA [G29C U45A C68G] | < 1e-05 s⁻¹ | – | – | – | < 1e-05 s⁻¹ |
| AUAAAAGCGCCAGAACUACAGAAAUGUAAUUGACGUGGAGGAGGUUUAUCGAAUUUUCGGCGGAUGCCUCCAAA [G29A A36U] | < 1e-05 s⁻¹ | – | < 1e-05 s⁻¹ | < 1e-05 s⁻¹ | – |
| AUAAAAGCGCCAGAACUACAGAAAUGUACUUGACGAGGACGAGGUUUAUCGAAUUUUCGGCGGACGCCUCCAAA [G29C G40C U65C] | < 1e-05 s⁻¹ | – | – | – | – |
| AUAAAAGCGCCAGAACUACAGAAAUGUAAUCGACUAGGAGGAGGUUUAUCGAAUUUUCGGCGGAUACCUCCAAA [G29A U31C G35U G66A] | < 1e-05 s⁻¹ | – | – | – | – |
| AUAAAAGCGCCAGAACUACAGAAAUGUUGUUGACGAGGAGGAGGUUUAUCGAAUUUUCGGCGGAUGCCUCCAAA [A28U] | 0.000787 ± 0.00025 s⁻¹ | – | – | 0.0144 ± 0.0048 s⁻¹ | 0.0176 ± 0.0065 s⁻¹ |
| AUAAAAGCGCCAGAACUACAGAAAUGUAAUUGACUAGGAGGAGGUUUAUUGAAUUUUCGGCGGAUGCCUCCAAA [G29A G35U C50U] | < 1e-05 s⁻¹ | – | – | – | < 1e-05 s⁻¹ |
| AUAAAAGCGCCAGAACUACAGAAAUGUACUUGACGAUGAGGAGGUUUAUCGAAUUUUCGGCGUAUGCCUCCAAA [G29C G37U G63U] | < 1e-05 s⁻¹ | – | – | – | – |
| AUAAAAGCGCCAGAACUACAGAAAUGUACUUGACGAGUAGGAGGUUUCUCGAAUUUUCGGCGGAUGCCUCCAAA [G29C G38U A48C] | < 1e-05 s⁻¹ | – | < 1e-05 s⁻¹ | – | < 1e-05 s⁻¹ |
| AUAAAAGCGCCAGAACUACAGAAAUGUAAUUGACGAGGAGGAGGUUUAUCGAAUCUUCGGGGGAUGCCUCCAAA [G29A U55C C61G] | < 1e-05 s⁻¹ | – | – | – | – |

| Variant | self-cleavage kobs at 40 uM GlcN6P (glucosamine-6-phosphate [1]) | self-cleavage kobs at 160 uM GlcN6P (glucosamine-6-phosphate [2]) | self-cleavage kobs at 640 uM GlcN6P (glucosamine-6-phosphate [3]) | self-cleavage kobs at 2500 uM GlcN6P (glucosamine-6-phosphate [4]) | self-cleavage kobs at 10000 uM GlcN6P (glucosamine-6-phosphate [5]) |
| --- | --- | --- | --- | --- | --- |
| AUAAAAGCGCCAGAACUACAGAAAUGUACUUGACGAGGAGGAGGUUUGUCGAAUUUUCGGCGGAUGCCUCCAAA [G29C A48G] | < 1e-05 s⁻¹ | < 1e-05 s⁻¹ | < 1e-05 s⁻¹ | < 1e-05 s⁻¹ | – |
| AUAAAAGCGCCAGAACUACAGAAAUGUACUUGAUGAGGAGGAGGUUUAUCGAAUUUUCGGCGGAUGCCUCCAAA [G29C C34U] | < 1e-05 s⁻¹ | < 1e-05 s⁻¹ | < 1e-05 s⁻¹ | < 1e-05 s⁻¹ | < 1e-05 s⁻¹ |
| AUAAAAGCGCCAGAACUACAGAAAUGUAAUUGACGAGGGGGAGGUUUAUCGAAUUUUCGGCGGAUGCCUCCAAA [G29A A39G] | 0.000267 ± 3.9e-05 s⁻¹ | – | 0.00148 ± 0.00051 s⁻¹ | 0.00297 ± 0.00077 s⁻¹ | 0.0102 ± 0.0018 s⁻¹ |
| AUAAAAGCGCCAGAACUACAGAAAUGUAAUUGACGAGGAGGAGGUUUAUCGAAUUUUCGGUGAAUGCCUCCAAA [G29A C61U G63A] | < 1e-05 s⁻¹ | – | – | – | – |
| AUAAAAGCGCCAGAACUACAGAAAUGUACUUGACGAGGAGGAGGUUUAUCGAAUUUUCGGCAGAUGCCUCCAAA [G29C G62A] | < 1e-05 s⁻¹ | – | < 1e-05 s⁻¹ | – | – |
| AUAAAAGCGCCAGAACUACAGAAAUGUACUUGACGAGGAGGAGGUUUAUCGAAUUUUCGGCUGAUGCCUCCAAA [G29C G62U] | < 1e-05 s⁻¹ | < 1e-05 s⁻¹ | – | – | – |
| AUAAAAGCGCCAGAACUACAGAAAUGUAAUUGACGAGGAGGAGGUUUAACGAAUUUUCGGCGGAUGCCUCCAAA [G29A U49A] | < 1e-05 s⁻¹ | < 1e-05 s⁻¹ | < 1e-05 s⁻¹ | – | – |
| AUAAAAGCGCCAGAACUACAGAAAUGUACUUGACGUGGAGGAGGUUUAUCGAAUUUUCGGCGGAUGCCUCCAAA [G29C A36U] | < 1e-05 s⁻¹ | – | < 1e-05 s⁻¹ | – | – |
| AUAAAAGCGCCAGAACUACAGAAAUGUACUUGACGAGGAGGAGGUUUAUCGAAUUUUUGGCGGAUGCCUCUAAA [G29C C58U C71U] | < 1e-05 s⁻¹ | – | – | – | 5.59e-05 ± 1.7e-05 s⁻¹ |
| AUAAAAGCGCCAGAACUACAGAAAUGUAAUUGACGAGAAGGAGGUGUAUCGAAUUUUCGGUGGAUGCCUCCAAA [G29A G38A U46G C61U] | < 1e-05 s⁻¹ | – | – | – | < 1e-05 s⁻¹ |
| AUAAAAGCGCCAGAACUACAGAAAUGUAAUUUAGGAGGAGGAGGUUUAUAGAAUUUUCGGUGGAUGCCUCCAAA [G29A G32U C34G C50A C61U] | < 1e-05 s⁻¹ | – | – | – | < 1e-05 s⁻¹ |
| AUAAAAGCGCCAGAACUACAGAAAUGUAAUUGACGACGAGGAGGUUUAUCGAAUUUUCGGCGGAUGCCCCCAAA [G29A G37C U69C] | < 1e-05 s⁻¹ | – | – | – | < 1e-05 s⁻¹ |
| AUAAAAGCGCCAGAACUACAGAAAUGUCGUUGAAGAGGAGGAGGUUUAUCGAAUUUUCGGCCGAUGCCUCCAAA [A28C C34A G62C] | < 1e-05 s⁻¹ | – | – | – | < 1e-05 s⁻¹ |
| AUAAAAGCGCCAGAACUACAGAAAUGUACUUGACGCGGAGGAGGUUUACCGAAGUUUCGGCGGAUGCCUCCAAA [G29C A36C U49C U54G] | < 1e-05 s⁻¹ | – | – | – | – |
| AUAAAAGCGCCAGAACUACAGAAAUUUAGUUGACGAGGAGGAGGUGUAUCGAAUUUUCGGCGGAUGCCUCCAAA [G26U U46G] | 0.000306 ± 7.3e-05 s⁻¹ | – | – | – | 0.00888 ± 0.0026 s⁻¹ |
